Values of other authors as cited in publication PMC12525431, “Hsp70 Peptides Induce TREM-1-Dependent and TREM-1-Independent Activation of Cytotoxic Lymphocytes” (International Journal of Molecular Sciences, 2025).

Target: T1, TREM-1 (Homo sapiens, UniProt Q9NP99)
T1 construct: causes dissociation of the TREM-1 exocellular domain; made in house
Conditions: ref [30],[31],[32],[33]

T1 sequence (Q9NP99 21-205 limits assumed): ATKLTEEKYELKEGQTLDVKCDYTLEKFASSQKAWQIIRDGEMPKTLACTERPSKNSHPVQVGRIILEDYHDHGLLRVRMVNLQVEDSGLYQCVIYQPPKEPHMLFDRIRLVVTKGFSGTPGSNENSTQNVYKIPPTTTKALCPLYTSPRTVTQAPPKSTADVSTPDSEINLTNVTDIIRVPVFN

TREM-1 ligand: TREM-1 ligands
B1: eCIRP: RNA-binding protein (eCIRP), TREM-1 ligand (protein, UniProt Q14011 1-172, looked up)
Cold-inducible RNA-binding …: MASDEGKLFVGGLSFDTNEQSLEQVFSKYGQISEVVVVKDRETQRSRGFGFVTFENIDDAKDAMMAMNGKSVDGRQIRVDQAGKSSDNRSRGYRGGSAGGRGFFRGGRGRGRGFSRGGGDRGYGGNRFESRSGGYGGSRDYYSSRSQSGGYSDRSSGGSYRDSYDSYATHNE
